In the supplement of paper PMC11316812:
± gives the standard deviation of the averaged measurements.

Assays:
hTERT-HMEC = assay: percentage of EdU-negative (G0-arrested) nuclei per well, 72 h; higher = more G0 arrest; conditions: reference: sequence is the full UniProt precursor, the tested protein was the secreted form or ectodomain
MCF7 = assay: as above; conditions: reference: sequence is the full UniProt precursor, the tested protein was the secreted form or ectodomain
[1] = protein concentration 0.0225 µM
[2] = protein concentration 0.0307925 µM
[3] = protein concentration 0.307925 µM
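Further: secreted proteins added to cultured cells, EdU pulse at the end, nuclei found by Hoechst imaging, EdU status from nuclear versus surrounding ring intensity ratio, PBS as neutral control.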

Sequence	percentage of EdU-negative (hTERT-HMEC; [1])	percentage of EdU-negative (hTERT-HMEC; protein concentration 0.225 µM)	percentage of EdU-negative (MCF7; [1])	percentage of EdU-negative (MCF7; protein concentration 0.225 µM)	percentage of EdU-negative (hTERT-HMEC; [2])	percentage of EdU-negative (hTERT-HMEC; [3])	percentage of EdU-negative (MCF7; [2])	percentage of EdU-negative (MCF7; [3])
MAESAGASSFFPLVVLLLAGSGGSGPRGVQALLCACTSCLQANYTCETDGACMVSIFNLDGMEHHVRTCIPKVELVPAGKPFYCLSSEDLRNTHCCYTDYCNRIDLRVPSGHLKEPEHPSMWGPVELVGIIAGPVFLLFLIIIIVFLVINYHQRVYHNRQRLDMEDPSCEMCLSKDKTLQDLVYDLSTSGSGSGLPLFVQRTVARTIVLQEIIGKGRFGEVWRGRWRGGDVAVKIFSSREERSWFREAEIYQTVMLRHENILGFIAADNKDNGTWTQLWLVSDYHEHGSLFDYLNRYTVTIEGMIKLALSAASGLAHLHMEIVGTQGKPGIAHRDLKSKNILVKKNGMCAIADLGLAVRHDAVTDTIDIAPNQRVGTKRYMAPEVLDETINMKHFDSFKCADIYALGLVYWEIARRCNSGGVHEEYQLPYYDLVPSDPSIEEMRKVVCDQKLRPNIPNWWQSYEALRVMGKMMRECWYANGAARLTALRIKKTLSQLSVQEDVKI	5.48 ± 0.32%	6.41 ± 1.6%	25.1 ± 0.54%	25.3 ± 3.2%				
MAFAWWPCLILALLSSLAASGFPRSPFRLLGKRSLPEGVANGIEVYSTKINSKVTSRFAHNVVTMRAVNRADTAKEVSFDVELPKTAFITNFTLTIDGVTYPGNVKEKEVAKKQYEKAVSQGKTAGLVKASGRKLEKFTVSVNVAAGSKVTFELTYEELLKRHKGKYEMYLKVQPKQLVKHFEIEVDIFEPQGISMLDAEASFITNDLLGSALTKSFSGKKGHVSFKPSLDQQRSCPTCTDSLLNGDFTITYDVNRESPGNVQIVNGYFVHFFAPQGLPVVPKNVAFVIDISGSMAGRKLEQTKEALLRILEDMQEEDYLNFILFSGDVSTWKEHLVQATPENLQEARTFVKSMEDKGMTNINDGLLRGISMLNKAREEHRIPERSTSIVIMLTDGDANVGESRPEKIQENVRNAIGGKFPLYNLGFGNNLNYNFLENMALENHGFARRIYEDSDADLQLQGFYEEVANPLLTGVEMEYPENAILDLTQNTYQHFYDGSEIVVAGRLVDEDMNSFKADVKGHGATNDLTFTEEVDMKEMEKALQERDYIFGNYIERLWAYLTIEQLLEKRKNAHGEEKENLTARALDLSLKYHFVTPLTSMVVTKPEDNEDERAIADKPGEDAEATPVSPAMSYLTSYQPPQNPYYYVDGDPHFIIQIPEKDDALCFNIDEAPGTVLRLIQDAVTGLTVNGQITGDKRGSPDSKTRKTYFGKLGIANAQMDFQVEVTTEKITLWNRAVPSTFSWLDTVTVTQDGLSMMINRKNMVVSFGDGVTFVVVLHQVWKKHPVHRDFLGFYVVDSHRMSAQTHGLLGQFFQPFDFKVSDIRPGSDPTKPDATLVVKNHQLIVTRGSQKDYRKDASIGTKVVCWFVHNNGEGLIDGVHTDYIVPNLF	4.75 ± 1%	6.22 ± 0.29%	26.1 ± 2.2%	27.2 ± 3.3%				
MAFDVSCFFWVVLFSAGCKVITSWDQMCIEKEANKTYNCENLGLSEIPDTLPNTTEFLEFSFNFLPTIHNRTFSRLMNLTFLDLTRCQINWIHEDTFQSHHQLSTLVLTGNPLIFMAETSLNGPKSLKHLFLIQTGISNLEFIPVHNLENLESLYLGSNHISSIKFPKDFPARNLKVLDFQNNAIHYISREDMRSLEQAINLSLNFNGNNVKGIELGAFDSTIFQSLNFGGTPNLSVIFNGLQNSTTQSLWLGTFEDIDDEDISSAMLKGLCEMSVESLNLQEHRFSDISSTTFQCFTQLQELDLTATHLKGLPSGMKGLNLLKKLVLSVNHFDQLCQISAANFPSLTHLYIRGNVKKLHLGVGCLEKLGNLQTLDLSHNDIEASDCCSLQLKNLSHLQTLNLSHNEPLGLQSQAFKECPQLELLDLAFTRLHINAPQSPFQNLHFLQVLNLTYCFLDTSNQHLLAGLPVLRHLNLKGNHFQDGTITKTNLLQTVGSLEVLILSSCGLLSIDQQAFHSLGKMSHVDLSHNSLTCDSIDSLSHLKGIYLNLAANSINIISPRLLPILSQQSTINLSHNPLDCTCSNIHFLTWYKENLHKLEGSEETTCANPPSLRGVKLSDVKLSCGITAIGIFFLIVFLLLLAILLFFAVKYLLRWKYQHI	5.21 ± 0.11%	7.06 ± 0.86%	27.1 ± 4.8%	29.8 ± 3.2%				
MAFLGLFSLLVLQSMATGATFPEEAIADLSVNMYNRLRATGEDENILFSPLSIALAMGMMELGAQGSTQKEIRHSMGYDSLKNGEEFSFLKEFSNMVTAKESQYVMKIANSLFVQNGFHVNEEFLQMMKKYFNAAVNHVDFSQNVAVANYINKWVENNTNNLVKDLVSPRDFDAATYLALINAVYFKGNWKSQFRPENTRTFSFTKDDESEVQIPMMYQQGEFYYGEFSDGSNEAGGIYQVLEIPYEGDEISMMLVLSRQEVPLATLEPLVKAQLVEEWANSVKKQKVEVYLPRFTVEQEIDLKDVLKALGITEIFIKDANLTGLSDNKEIFLSKAIHKSFLEVNEEGSEAAAVSGMIAISRMAVLYPQVIVDHPFFFLIRNRRTGTILFMGRVMHPETMNTSGHDFEEL					4.97 ± 0.78%	49.1 ± 2.1%	22.8 ± 1.4%	27.7 ± 2.1%
MAFLPSWVCVLVGSFSASLAGTSNLSETEPPLWKESPGQLSDYRVENSMYIINPWVYLERMGMYKIILNQTARYFAKFAPDNEQNILWGLPLQYGWQYRTGRLADPTRRTNCGYESGDHMCISVDSWWADLNYFLSSLPFLAAVDSGVMGISSDQVRLLPPPKNERKFCYDVSSCRSSFPETMNKWNTFYQYLQSPFSKFDDLLKYLWAAHTSTLADNIKSFEDRYDYYSKAEAHFERSWVLAVDHLAAVLFPTTLIRSYKFQKGMPPRILLNTDVAPFISDFTAFQNVVLVLLNMLDNVDKSIGYLCTEKSNVYRDHSESSSRSYGNNS [Q6P5S2]	4.92 ± 0.16%	5.82 ± 0.65%	25.7 ± 0.86%	26.6 ± 0.54%				
